Experimental data taken from patent publication EP4790144A1 (Peking Union Medical College Hospital, dated 2026).
Residue numbers refer to the chain shown, from its start. Each block holds one binder with its values, some of them ahead of it.

Target: T1, 2023-601 project-ABCD1 protein (human, UniProt P33897 650-745)
T1 construct: also called antigen protein ABCD1
T1 sequence: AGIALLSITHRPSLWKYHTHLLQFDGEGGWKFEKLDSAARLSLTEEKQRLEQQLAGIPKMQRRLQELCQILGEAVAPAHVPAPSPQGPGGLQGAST
Experiment: ELISA, ABCD1 protein coated at 2 ug/mL, HRP goat anti-mouse secondary antibody

binding result: binds
B1: 07PC08 (antibody, V domains shown)
VH: EVKLEESGGGLVQPGGSMKLSCGASGFTFSDAWMDWVRQSPEKGLEWVAEIRSKAINHATYYAESVKGRFTISRDDSKSSVYLQMNSLRAEDTGIYYCTRRVDWYFDVWGAGTTVTVSS
VL: DILLTQSPAILSVSPGERVSFSCRASQSIGTSIYWYQQRTNGSPRLLIKYASESISGIPSRFSGSGSGTDFTLSINSVESEDIADYYCQQSNSWPLTFGAGTKLELK

binding result: binds
B2: 07TE02 (antibody, V domains shown)
VH: DVKLVESGGGLVKPGGSLKLSCAASGLTFSIYAMSWVRQTPEKRLEWVATISAGDIYPYYSDSVKGRFAISRDNAKNTLYLQMSSLRSEDTAIYYCTSITMAMAYWGQGTLVTVSA
VL: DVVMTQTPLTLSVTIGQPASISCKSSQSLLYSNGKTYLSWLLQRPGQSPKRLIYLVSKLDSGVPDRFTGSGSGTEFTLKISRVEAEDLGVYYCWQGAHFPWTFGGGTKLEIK

binding result: binds
B3: 07TE08 (antibody, V domains shown)
VH: B2 VH with L27F, Y80F
VL: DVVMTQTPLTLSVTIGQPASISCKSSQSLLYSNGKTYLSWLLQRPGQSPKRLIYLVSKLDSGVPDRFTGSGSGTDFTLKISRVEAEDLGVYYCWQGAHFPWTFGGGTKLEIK

binding result: binds
B4: 07TE04 (antibody, V domains shown)
VH: QVQLQQSGAELVKPGASVKLSCKASGYTFTRYYLYWVKQRPGQGLEWIGKINPTNGVADLNEKFKYKATLTVDKSSSTTHMQLSSLTSEDSAVYYCTRVYYKYDGFAYWGQGTLVTVSA
VL: DIVMTQSLKFMSTSVGDRVSIICKASQDVGTAVAWYQQKPAQSPKLLIYWASTRHTGVPDRFTGSGSGTDFTLTISNVQSEDLTDYFCQQYSSYPLTFGGGTKLEIK

binding result: binds
B5: 07PC17 (antibody, V domains shown)
VH: QLQLVQSGPEVKKPGETVKISCKASGYAFTNYGMNWVKQAPGKDLKWMGWINTYTGDPVYGDDFKGRFAFSLDTSASTAYLQINNLKNEDTATYFCVREPIYYGWVDYWGQGTSVTVSS
VL: DIVMTQAAPSVPVTPGESASISCRSSKSLLHRNGNTYLYWFLQRPGQSPQVLIYRMSNLASGVPDRFSGSGSGTAFTLRISRVEAEDVGVYYCMQHLEYPYTFGGGTKLEIK

binding result: binds
B6: 07PC28 (antibody, V domains shown)
VH: QIQLVQSGPELKKPGETVKISCKTSGYTFTDFGMNWVKRAPGQDLKWMGWINTYTGATTYGDEFKGRFAFSLETSASTASLQINNLKNEDSATYFCVREPLYYGWVDYWGQGTSVIVSS
VL: B5 VL with A7V, A19V

binding result: binds
B7: 07PC27 (antibody, V domains shown)
VH: B5 VH with V11L, A40T, D44G, T55S, D57E, P58T, V59T, D73E, N85S
VL: B5 VL with A19V

binding result: binds
B8: 07PC03 (antibody, V domains shown)
VH: B5 VH with N52K, P58S, N85D
VL: B5 VL

binding result: binds
B9: 07PC09 (antibody, V domains shown)
VH: IVMLVESGGGLVKPGGSLKLSCVASGFTFSTYAMSWIRQTPEKRLAWVATISSGGSSTYYSDSVKGRFTISRDNAKNTLYLQMSSLRSEDTAMYYCARHGDWDGSLAYWGQGTQVTVSA
VL: DIVMTQSHKLMSTSVGDRVNITCKASQDVNAAVAWYQQQPGQSPKLLFYWASTRHTGVPDRFTGSGSRTDYTLTISGVQAEDLALYYCQQHYSAPRTFGGGTKLEVK
